# Results reported in patent US20210155689A1 (SHANGHAI PHARMAEXPLORER, published 2021).
# Residue numbers refer to the chain shown, from its start.
# T1: human LAG-3 (full length, on the cell surface) (human, UniProt P18627 23-525)
# T1 construct: Full-length human LAG-3 expressed on cells; also called HEK293-hLAG-3; HEK293 cells transfected with LAG-3 gene
# T1 sequence: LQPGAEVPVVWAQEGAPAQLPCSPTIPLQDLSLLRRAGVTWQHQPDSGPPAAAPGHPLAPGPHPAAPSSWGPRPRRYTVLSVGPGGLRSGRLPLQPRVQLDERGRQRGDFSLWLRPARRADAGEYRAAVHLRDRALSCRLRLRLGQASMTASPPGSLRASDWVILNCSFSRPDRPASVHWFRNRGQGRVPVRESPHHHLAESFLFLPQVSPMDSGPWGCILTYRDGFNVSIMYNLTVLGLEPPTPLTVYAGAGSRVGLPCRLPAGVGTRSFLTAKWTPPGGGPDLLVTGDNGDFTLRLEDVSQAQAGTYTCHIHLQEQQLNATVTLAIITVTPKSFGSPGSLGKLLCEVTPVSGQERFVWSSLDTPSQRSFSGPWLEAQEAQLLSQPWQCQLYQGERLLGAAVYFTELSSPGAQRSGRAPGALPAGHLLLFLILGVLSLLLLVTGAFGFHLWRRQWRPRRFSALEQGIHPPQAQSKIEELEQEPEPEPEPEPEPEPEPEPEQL
# T2: mouse LAG-3 protein with hFc tag (mLAG-3-hFc protein) (mouse; human, UniProt Q61790 24-442)
# T2 construct: Made in HEK293 cells; also called mouse LAG-3 extracellular domain protein; not shown: human IgG Fc fragment (hFc) of the pCpC vector
# T2 sequence: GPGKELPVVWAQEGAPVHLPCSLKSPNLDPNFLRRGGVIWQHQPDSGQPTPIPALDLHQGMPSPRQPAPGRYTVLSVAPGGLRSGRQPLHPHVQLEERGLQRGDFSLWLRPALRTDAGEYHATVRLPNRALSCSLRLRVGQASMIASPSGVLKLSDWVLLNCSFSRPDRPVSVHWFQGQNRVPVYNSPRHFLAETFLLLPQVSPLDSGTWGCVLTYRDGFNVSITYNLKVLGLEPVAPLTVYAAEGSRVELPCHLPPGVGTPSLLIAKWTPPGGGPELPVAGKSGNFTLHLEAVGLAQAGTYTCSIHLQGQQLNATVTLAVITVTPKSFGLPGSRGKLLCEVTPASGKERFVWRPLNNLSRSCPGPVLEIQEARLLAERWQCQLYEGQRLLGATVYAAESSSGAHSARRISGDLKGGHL
# T3: hFc tagged monkey LAG-3 protein (cLAG-3-hFc protein) (monkey; human)
# T3 construct: Made in HEK293 cells; also called monkey LAG-3 extracellular domain protein; not shown: human IgG Fc fragment (hFc) of the pCpC vector
# T3 chain: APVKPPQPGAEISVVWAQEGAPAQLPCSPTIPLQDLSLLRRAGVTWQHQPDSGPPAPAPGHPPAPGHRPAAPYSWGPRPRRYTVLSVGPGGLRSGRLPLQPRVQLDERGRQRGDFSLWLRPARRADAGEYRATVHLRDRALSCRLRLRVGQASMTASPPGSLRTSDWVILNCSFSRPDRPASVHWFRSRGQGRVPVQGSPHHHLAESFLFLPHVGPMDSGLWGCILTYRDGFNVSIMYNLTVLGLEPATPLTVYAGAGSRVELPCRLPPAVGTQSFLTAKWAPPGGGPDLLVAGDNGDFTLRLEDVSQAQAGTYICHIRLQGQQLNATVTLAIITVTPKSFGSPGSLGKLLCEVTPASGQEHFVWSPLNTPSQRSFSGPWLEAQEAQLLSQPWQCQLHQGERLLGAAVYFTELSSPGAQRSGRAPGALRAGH
# B1: 556F6B8 (mouse antibody purified from hybridoma) (antibody, V domains shown)
# VH: RVQLKQSGPGLVQPSQSLSITCTVSGFSLIKYGVHWVRQSPGEGLEWLGVIWRGGITDYNAAFMSRLSITKDNSKSQVFFKMNSLQADDTAIYYCAKWDGPLAMDYWGQGTSVTVSS
# VL: DIVMTQSHKFLSTSVGDRVSITCKASQDVGTTVAWYQQKPGQSPKLLIYWASTRHTGVPDRFTGSGSGTDFTLTISNVQSEDLADYFCQQYSSYPYTFGGGTKLEIK
# notes: also called mAb123-556F6B8
# B2: 556F6B8 (LAG-3 mouse-human chimeric antibody) (antibody, V domains shown)
# VH: B1 VH
# VL: B1 VL
# notes: also called 556F8B8
# B3: 405B8H3 (mouse antibody purified from hybridoma) (antibody, V domains shown)
# VH: QVQLQQSGAELVRPGASVTLSCKASGYTFTDYEMHWVKQTPVHGLEWIGATDPETGNSAYNQKFKGKAIMTADKSSSTAYMELRSLTSEDSAVYYCISTGWNDWGQGTSLTVSS
# VL: DIKMTQSPSSMYASLGERVTITCKASQDINSYLSWFQQKPGKSPKTLIYRADRLLDGVPSRFSGSGSGQDYSLTISSLEYGDMGIYYCLQYDEFPYTFGGGTKLEIK
# notes: also called mAb103-405B8H3; 405B81-13
# B4: 105F1E10 (mouse antibody purified from hybridoma) (antibody, V domains shown)
# VH: EVQLQQSGPELVKPGASVKMSCRASGYTFTDFKMHWMKQSHGKSLEWIGYIAPNNGGTAYNQKFRGKATLTVNESSNTAYMELRSLTSEDSAVYYCVDWDDVDYWGQGTTLTVSS
# VL: B3 VL with P40S, D52N, L55V, G81E, D92V, Y96L, G100A, I106L
# notes: also called mAb009-105F1E10
# B5: 105F1E10 (LAG-3 mouse-human chimeric antibody) (antibody, V domains shown)
# VH: B4 VH
# VL: B3 VL with P40S, D52N, L55V, G81E, D92V, Y96L, G100A, I106L
# B6: 405B8H3 (LAG-3 mouse-human chimeric antibody) (antibody, V domains shown)
# VH: B3 VH
# VL: B3 VL
# notes: also called mouse-human chimeric antibody 405B8H3
# B7: 409B11E12 (LAG-3 mouse-human chimeric antibody) (antibody, V domains shown)
# VH: B3 VH with P41T, G56S, N57Y, M70L, S98A
# VL: B3 VL with I2L, D52N, G81E
# B8: 409D4E10 (LAG-3 mouse-human chimeric antibody) (antibody, V domains shown)
# VH: B3 VH with Y27N, G56D, S58T, M70L, A72T, S98T, T99S
# VL: B3 VL with D52N, G81E, D92N
# B9: 409D4E10 (mouse antibody purified from hybridoma) (antibody, V domains shown)
# VH: B3 VH with Y27N, G56D, S58T, M70L, A72T, S98T, T99S
# VL: B3 VL with D52N, G81E, D92N
# notes: also called mAb112-409D4E10
# B10: 409B11E12 (mouse antibody purified from hybridoma) (antibody, V domains shown)
# VH: B3 VH with P41T, G56S, N57Y, M70L, S98A
# VL: B3 VL with I2L, D52N, G81E
# notes: also called mAb104-409B11E12
# Experiments:
# [1] = biological target: T1, human LAG-3 (full length, on the cell …); experiment: FACS, HEK293-hLAG-3; 0.320 nM
# Excerpt: The pIRES plasmid with the monkey-derived full-length gene was transfected into the HEK293 cell line to construct a HEK293 stable cell line containing monkey LAG-3 (herein referred to as HEK293-cLAG-3 stable cell line). The HEK293-hLAG-3 stable cell line and HEK293-cLAG-3 stable cell line were expanded in a T-75 cell culture flask to a 90% confluence. The medium was aspirated, and the cells were washed with HBSS (Hanks' Balanced Salt Solution) 1-2 times, then treated with a enzyme-free cell dissociation fluid (Versene solution: Life technology) and the cells were collected. The cells were washed with HBSS buffer for 1-2 times. After counted, the cells were diluted with HBSS to 1-2×10⁶ cells per ml, added with 1% goat serum blocking solution, incubated on ice for 20-30 minutes, and then washed with HBSS for 2 times by centrifugation. The collected cells were suspended in the FACS buffer (HBSS+1% BSA) to 2×10⁶ cells/ml, added as 100 microliters per well to a 96-well FACS reaction plate, added with 100 microliters per well of the antibody sample to be tested, incubated on ice for 1-2 hours. The plate was washed twice with the FACS buffer by centrifugation, added with 100 microliters of fluorescent (Alexa 488)-labeled secondary antibodies per well, and incubated on ice for 0.5-1.0 hours. The plate was washed 2-3 times with FACS buffer by centrifugation, added with 100 μl fixative solution (4% Paraformaldehyde) per well to suspend the cells. 5-10 minutes later, it was washed 1-2 times with FACS buffer by centrifugation. The cells were suspended with 100 microliters of FACS buffer, FACS (FACSCalibur, BD) was used for detection and the results were analyzed.
# [2] = biological target: T2, mouse LAG-3 protein with hFc tag …; experiment: ELISA, mLAG-3-hFc coated
# Procedure: (§1) The plate was sealed with plastic film and incubated overnight at 4° C. The plate was washed 2 times with the plate washing solution (PBS+0.01% Tween20) on the next day, and added with the blocking solution (PBS+0.01% Tween20+1% BSA) and blocked at room temperature for 1-2 hours. The blocking solution was poured out, and the plate was added with 50-100 μl of the antibody sample to be tested to each well, incubated at 37° C. for 1-2 hours, and washed 2-3 times with a plate washing solution (PBS+0.01% Tween20). HRP (horseradish peroxidase) labeled secondary antibody was added, and the plate was incubated at 37° C. for 1-2 hours, and washed 2-3 times with a plate washing solution (PBS+0.01% Tween20). 100 μl of TMB substrate was added to each well. After incubated at room temperature for 15-30 minutes, the plate was added with 100 μl of stop solution (1.0N HCl) to each well.
# [3] = biological target: T3, hFc tagged monkey LAG-3 protein …; experiment: ELISA, cLAG-3-hFc coated; 6.6667 nM
# Procedure: as §1
Binder,Mean fluorescence intensity [1],binding result [2],OD450 [3]
B1,16.1 MFI,,
B2,,no binding (tested: 66.6670 nM),3.78 OD450
B3,24.7 MFI,,
B4,23.3 MFI,,
B5,,no binding (tested: 66.6670 nM),3.53 OD450
B6,,no binding (tested: 66.6670 nM),3.55 OD450
B7,,no binding (tested: 66.6670 nM),3.47 OD450
B8,,no binding (tested: 66.6670 nM),3.79 OD450
B9,13 MFI,,
B10,13.4 MFI,,
